# Measured values taken from PMC3326528.
# Substrate: C[S+](CC[C@H](N)C(=O)[O-])C[C@H]1O[C@@H](n2cnc3c(N)ncnc32)[C@H](O)[C@@H]1O
# Test: Discontinuous HPLC assay of 5′-FDA formation with SAM varied at 200 mM fluoride
# Format: biochemical
# Conditions: pH 7.8; 25.0 °C
Protein,Km [µM],kcat [s⁻¹]
T80A (Streptantibioticus cattleyicolor; T80A) (protein) AANSTRRPIIAFMSDLGTTDDSVAQCKGLMYSICPDVTVVDVCHSMTPWDVEEGARYIVDLPRFFPEGTVFATTTYPAAGTTTRSVAVRIKQAAKGGARGQWAGSGAGFERAEGSYIYIAPNNGLLTTVLEEHGYLEAYEVTSPKVIPEQPEPTFYSREMVAIPSAHLAAGFPLSEVGRPLEDHEIVRFNRPAVEQDGEALVGVVSAIDHPFGNVWTNIHRTDLEKAGIGYGARLRLTLDGVLPFEAPLTPTFADAGEIGNIAIYLNSRGYLSIARNAASLAYPYHLKEGMSARVEAR,3.0 ± 0.4,8.33e-05 ± 3.33e-06
T80S (Streptantibioticus cattleyicolor; T80S) (protein) AANSTRRPIIAFMSDLGTTDDSVAQCKGLMYSICPDVTVVDVCHSMTPWDVEEGARYIVDLPRFFPEGTVFATTTYPASGTTTRSVAVRIKQAAKGGARGQWAGSGAGFERAEGSYIYIAPNNGLLTTVLEEHGYLEAYEVTSPKVIPEQPEPTFYSREMVAIPSAHLAAGFPLSEVGRPLEDHEIVRFNRPAVEQDGEALVGVVSAIDHPFGNVWTNIHRTDLEKAGIGYGARLRLTLDGVLPFEAPLTPTFADAGEIGNIAIYLNSRGYLSIARNAASLAYPYHLKEGMSARVEAR,4.7 ± 0.4,0.001 ± 3.33e-05
S158G (Streptantibioticus cattleyicolor; S158G) (protein) AANSTRRPIIAFMSDLGTTDDSVAQCKGLMYSICPDVTVVDVCHSMTPWDVEEGARYIVDLPRFFPEGTVFATTTYPATGTTTRSVAVRIKQAAKGGARGQWAGSGAGFERAEGSYIYIAPNNGLLTTVLEEHGYLEAYEVTSPKVIPEQPEPTFYGREMVAIPSAHLAAGFPLSEVGRPLEDHEIVRFNRPAVEQDGEALVGVVSAIDHPFGNVWTNIHRTDLEKAGIGYGARLRLTLDGVLPFEAPLTPTFADAGEIGNIAIYLNSRGYLSIARNAASLAYPYHLKEGMSARVEAR,0.8 ± 0.5,1.17e-05 ± 5e-07
S158A (Streptantibioticus cattleyicolor; S158A) (protein) AANSTRRPIIAFMSDLGTTDDSVAQCKGLMYSICPDVTVVDVCHSMTPWDVEEGARYIVDLPRFFPEGTVFATTTYPATGTTTRSVAVRIKQAAKGGARGQWAGSGAGFERAEGSYIYIAPNNGLLTTVLEEHGYLEAYEVTSPKVIPEQPEPTFYAREMVAIPSAHLAAGFPLSEVGRPLEDHEIVRFNRPAVEQDGEALVGVVSAIDHPFGNVWTNIHRTDLEKAGIGYGARLRLTLDGVLPFEAPLTPTFADAGEIGNIAIYLNSRGYLSIARNAASLAYPYHLKEGMSARVEAR,9.2 ± 1.2,0.00015 ± 1e-05
